Reference: article PMC9482650, “Quantitative fragmentomics allow affinity mapping of interactomes” (Nature Communications, 2022)

How the values were obtained:
Test in all cases: holdup assay
Design in all cases: key: below the threshold = too weak to quantify, mostly under pKd 3.1 to 4
FRMPD1, Q5SYB0 = biological target: T1, FRMPD1, Q5SYB0
T1 sequence (Q5SYB0 52-145, limits assumed, looked up): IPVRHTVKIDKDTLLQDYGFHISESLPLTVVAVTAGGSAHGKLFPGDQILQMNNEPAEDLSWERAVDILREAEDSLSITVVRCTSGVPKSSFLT

MAST1, Q9Y2H9 = biological target: MAST1, Q9Y2H9
GRIP2_4, Q9C0E4 = biological target: GRIP2_4, Q9C0E4
MPP2, Q14168 = biological target: T2, MPP2, Q14168
T2 sequence (Q14168 180-250, limits assumed, looked up): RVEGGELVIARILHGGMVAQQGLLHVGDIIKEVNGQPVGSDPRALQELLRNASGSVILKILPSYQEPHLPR

SCRIB_1, Q14160 = biological target: SCRIB_1, Q14160
NHERF2_2, Q15599 = biological target: NHERF2_2, Q15599
TIAM2, Q8IVF5 = biological target: T3, TIAM2, Q8IVF5
T3 sequence (Q8IVF5 885-986, limits assumed, looked up): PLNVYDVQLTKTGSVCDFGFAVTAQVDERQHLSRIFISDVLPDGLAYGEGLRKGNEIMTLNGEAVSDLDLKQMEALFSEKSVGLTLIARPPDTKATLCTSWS

GRIP2_5, Q9C0E4 = biological target: GRIP2_5, Q9C0E4
LNX1_2, Q8TBB1 = biological target: LNX1_2, Q8TBB1
DLG2_2, Q15700 = biological target: DLG2_2, Q15700
HTRA3, P83110 = biological target: T4, HTRA3, P83110
T4 sequence (P83110 354-453, limits assumed, looked up): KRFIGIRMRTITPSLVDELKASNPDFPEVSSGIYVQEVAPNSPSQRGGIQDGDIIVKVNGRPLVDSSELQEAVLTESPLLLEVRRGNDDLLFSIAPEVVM

GORASP1, Q9BQQ3 = biological target: GORASP1, Q9BQQ3
PCLO, Q9Y6V0 = biological target: T5, PCLO, Q9Y6V0
T5 sequence (Q9Y6V0 4491-4600, limits assumed, looked up): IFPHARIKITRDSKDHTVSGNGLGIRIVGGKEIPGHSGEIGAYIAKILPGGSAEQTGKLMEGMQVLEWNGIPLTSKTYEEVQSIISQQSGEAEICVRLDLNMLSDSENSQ

LAP2, Q96RT1 = biological target: LAP2, Q96RT1
TJP3_3, O95049 = biological target: T6, TJP3_3, O95049
T6 sequence (O95049 375-456, limits assumed, looked up): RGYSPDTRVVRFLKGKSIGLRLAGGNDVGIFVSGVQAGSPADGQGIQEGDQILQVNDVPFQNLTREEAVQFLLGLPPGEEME

ARHGEF11, O15085 = biological target: T7, ARHGEF11, O15085
T7 sequence (O15085 42-136, limits assumed, looked up): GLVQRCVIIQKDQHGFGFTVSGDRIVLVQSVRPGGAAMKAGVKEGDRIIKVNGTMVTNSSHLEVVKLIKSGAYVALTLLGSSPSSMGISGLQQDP

DFNB31_3, Q9P202 = biological target: T8, DFNB31_3, Q9P202
T8 sequence (Q9P202 811-907, limits assumed, looked up): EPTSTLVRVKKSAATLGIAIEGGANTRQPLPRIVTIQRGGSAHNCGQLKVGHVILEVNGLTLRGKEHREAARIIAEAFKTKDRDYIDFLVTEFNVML

PDZD7_3, Q9H5P4 = biological target: T9, PDZD7_3, Q9H5P4
T9 sequence (Q9H5P4 857-944, limits assumed, looked up): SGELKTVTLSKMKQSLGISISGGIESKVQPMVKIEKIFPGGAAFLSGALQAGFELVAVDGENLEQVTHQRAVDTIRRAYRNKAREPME

MPDZ_5, O75970 = biological target: T10, MPDZ_5, O75970
T10 sequence (O75970 695-796, limits assumed, looked up): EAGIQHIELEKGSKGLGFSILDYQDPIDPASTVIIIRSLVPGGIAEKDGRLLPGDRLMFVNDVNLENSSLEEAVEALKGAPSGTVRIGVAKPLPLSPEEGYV

LIN7A, O14910 = biological target: T11, LIN7A, O14910
T11 sequence (O14910 103-200, limits assumed, looked up): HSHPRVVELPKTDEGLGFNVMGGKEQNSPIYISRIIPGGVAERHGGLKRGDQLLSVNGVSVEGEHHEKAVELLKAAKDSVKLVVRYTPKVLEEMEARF

DLG1_3, Q12959 = biological target: DLG1_3, Q12959
GRIP1_7, Q9Y3R0 = biological target: T12, GRIP1_7, Q9Y3R0
T12 sequence (Q9Y3R0 999-1096, limits assumed, looked up): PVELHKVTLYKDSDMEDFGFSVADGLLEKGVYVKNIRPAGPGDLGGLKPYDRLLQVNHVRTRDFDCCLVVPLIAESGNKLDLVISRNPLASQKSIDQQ

NHERF3_3, Q5T2W1 = biological target: T13, NHERF3_3, Q5T2W1
T13 sequence (Q5T2W1 238-333, limits assumed, looked up): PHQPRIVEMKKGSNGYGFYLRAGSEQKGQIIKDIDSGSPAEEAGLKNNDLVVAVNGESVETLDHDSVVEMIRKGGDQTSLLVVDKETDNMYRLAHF

IL16_4, Q14005 = biological target: IL16_4, Q14005
DLG2_3, Q15700 = biological target: DLG2_3, Q15700
[1] = plain residues with an end cap or a label only (N-terminal biotin on a linker: ttds)
[2] = plain residues with an end cap or a label only (N-terminal biotin on a linker: ahx)

Chain of IL16_4, Q14005 (Q14005 1229-1329): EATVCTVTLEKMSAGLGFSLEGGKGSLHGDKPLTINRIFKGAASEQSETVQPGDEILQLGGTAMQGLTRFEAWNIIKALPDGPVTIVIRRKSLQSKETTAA
Chain of LAP2, Q96RT1 (Q96RT1 other isoform, or with tags, fused parts or gaps): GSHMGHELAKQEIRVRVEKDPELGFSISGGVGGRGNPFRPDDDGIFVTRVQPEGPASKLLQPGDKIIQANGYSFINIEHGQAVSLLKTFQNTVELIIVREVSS
Chain of GRIP2_4, Q9C0E4 (Q9C0E4 446-548): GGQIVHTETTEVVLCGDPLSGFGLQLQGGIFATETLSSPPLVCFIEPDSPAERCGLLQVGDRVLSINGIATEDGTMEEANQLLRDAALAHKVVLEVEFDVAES
Chain of DLG1_3, Q12959 (Q12959 457-571): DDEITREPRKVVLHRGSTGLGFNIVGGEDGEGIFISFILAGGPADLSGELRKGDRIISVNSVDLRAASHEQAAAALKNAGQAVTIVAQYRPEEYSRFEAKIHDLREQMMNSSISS
Chain of MAST1, Q9Y2H9 (Q9Y2H9 962-1065): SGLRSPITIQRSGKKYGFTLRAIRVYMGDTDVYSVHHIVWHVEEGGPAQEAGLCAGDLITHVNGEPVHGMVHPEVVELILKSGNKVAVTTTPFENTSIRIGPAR
Chain of LNX1_2, Q8TBB1 (Q8TBB1 371-470): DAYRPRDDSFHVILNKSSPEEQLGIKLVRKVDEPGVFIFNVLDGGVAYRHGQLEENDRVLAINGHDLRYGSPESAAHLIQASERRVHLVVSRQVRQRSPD
Chain of SCRIB_1, Q14160 (Q14160 718-814): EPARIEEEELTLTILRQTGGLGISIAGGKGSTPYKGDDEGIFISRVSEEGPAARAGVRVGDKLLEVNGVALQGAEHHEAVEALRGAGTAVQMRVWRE
Chain of NHERF2_2, Q15599 (Q15599 142-238): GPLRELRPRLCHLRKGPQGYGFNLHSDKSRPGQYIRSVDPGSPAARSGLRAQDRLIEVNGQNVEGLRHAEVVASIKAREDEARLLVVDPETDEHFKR
Chain of GRIP2_5, Q9C0E4 (Q9C0E4 544-642): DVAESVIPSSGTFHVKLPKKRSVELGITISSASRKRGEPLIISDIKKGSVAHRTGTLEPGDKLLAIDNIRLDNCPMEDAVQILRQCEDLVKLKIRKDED
Chain of GORASP1, Q9BQQ3 (Q9BQQ3 1-208): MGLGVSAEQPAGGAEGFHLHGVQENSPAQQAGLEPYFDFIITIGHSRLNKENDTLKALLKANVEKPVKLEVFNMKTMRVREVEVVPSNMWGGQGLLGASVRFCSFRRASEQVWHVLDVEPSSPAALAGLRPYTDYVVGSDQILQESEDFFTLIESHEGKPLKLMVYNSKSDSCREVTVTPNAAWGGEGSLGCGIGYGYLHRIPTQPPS

## STLTIFETAL [ABCC4, O15439]
FRMPD1, Q5SYB0; [1]
  pKd: below the threshold
MAST1, Q9Y2H9; [1]
  pKd: 5.28
GRIP2_4, Q9C0E4; [1]
  pKd: below the threshold
MPP2, Q14168; [1]
  pKd: below the threshold
SCRIB_1, Q14160; [1]
  pKd: 6.07
NHERF2_2, Q15599; [1]
  pKd: 5.07
TIAM2, Q8IVF5; [1]
  pKd: below the threshold
GRIP2_5, Q9C0E4; [1]
  pKd: below the threshold
LNX1_2, Q8TBB1; [1]
  pKd: below the threshold
DLG2_2, Q15700; [1]
  pKd: 4.15
HTRA3, P83110; [1]
  pKd: below the threshold
GORASP1, Q9BQQ3; [1]
  pKd: below the threshold
PCLO, Q9Y6V0; [1]
  pKd: below the threshold
LAP2, Q96RT1; [1]
  pKd: 4.57
TJP3_3, O95049; [1]
  pKd: below the threshold
ARHGEF11, O15085; [1]
  pKd: 4.93
DFNB31_3, Q9P202; [1]
  pKd: below the threshold
PDZD7_3, Q9H5P4; [1]
  pKd: 5.27
MPDZ_5, O75970; [1]
  pKd: below the threshold
LIN7A, O14910; [1]
  pKd: 3.66
DLG1_3, Q12959; [1]
  pKd: 4.38
GRIP1_7, Q9Y3R0; [1]
  pKd: below the threshold
NHERF3_3, Q5T2W1; [1]
  pKd: 3.61
IL16_4, Q14005; [1]
  pKd: below the threshold
DLG2_3, Q15700; [1]
  pKd: 3.98

## TEAKLTETNA [MYO18A, Q92614]
FRMPD1, Q5SYB0; [2]
  pKd: below the threshold
MAST1, Q9Y2H9; [2]
  pKd: below the threshold
GRIP2_4, Q9C0E4; [2]
  pKd: below the threshold
MPP2, Q14168; [2]
  pKd: below the threshold
SCRIB_1, Q14160; [2]
  pKd: below the threshold
NHERF2_2, Q15599; [2]
  pKd: below the threshold
TIAM2, Q8IVF5; [2]
  pKd: below the threshold
GRIP2_5, Q9C0E4; [2]
  pKd: below the threshold
LNX1_2, Q8TBB1; [2]
  pKd: below the threshold
DLG2_2, Q15700; [2]
  pKd: below the threshold
HTRA3, P83110; [2]
  pKd: below the threshold
GORASP1, Q9BQQ3; [2]
  pKd: below the threshold
PCLO, Q9Y6V0; [2]
  pKd: below the threshold
LAP2, Q96RT1; [2]
  pKd: below the threshold
TJP3_3, O95049; [2]
  pKd: below the threshold
ARHGEF11, O15085; [2]
  pKd: below the threshold
DFNB31_3, Q9P202; [2]
  pKd: below the threshold
PDZD7_3, Q9H5P4; [2]
  pKd: below the threshold
MPDZ_5, O75970; [2]
  pKd: below the threshold
LIN7A, O14910; [2]
  pKd: below the threshold
DLG1_3, Q12959; [2]
  pKd: below the threshold
GRIP1_7, Q9Y3R0; [2]
  pKd: below the threshold
NHERF3_3, Q5T2W1; [2]
  pKd: below the threshold
IL16_4, Q14005; [2]
  pKd: below the threshold
DLG2_3, Q15700; [2]
  pKd: below the threshold

## IDNDTESTAL [ARHGAP17, Q68EM7]
FRMPD1, Q5SYB0; [1]
  pKd: below the threshold
MAST1, Q9Y2H9; [1]
  pKd: 4.91
GRIP2_4, Q9C0E4; [1]
  pKd: below the threshold
MPP2, Q14168; [1]
  pKd: below the threshold
SCRIB_1, Q14160; [1]
  pKd: 4.91
NHERF2_2, Q15599; [1]
  pKd: 5.24
TIAM2, Q8IVF5; [1]
  pKd: below the threshold
GRIP2_5, Q9C0E4; [1]
  pKd: below the threshold
LNX1_2, Q8TBB1; [1]
  pKd: below the threshold
DLG2_2, Q15700; [1]
  pKd: below the threshold
HTRA3, P83110; [1]
  pKd: below the threshold
GORASP1, Q9BQQ3; [1]
  pKd: below the threshold
PCLO, Q9Y6V0; [1]
  pKd: below the threshold
LAP2, Q96RT1; [1]
  pKd: below the threshold
TJP3_3, O95049; [1]
  pKd: below the threshold
ARHGEF11, O15085; [1]
  pKd: 4.79
DFNB31_3, Q9P202; [1]
  pKd: below the threshold
PDZD7_3, Q9H5P4; [1]
  pKd: 4.25
MPDZ_5, O75970; [1]
  pKd: below the threshold
LIN7A, O14910; [1]
  pKd: below the threshold
DLG1_3, Q12959; [1]
  pKd: below the threshold
GRIP1_7, Q9Y3R0; [1]
  pKd: 3.51
NHERF3_3, Q5T2W1; [1]
  pKd: below the threshold
IL16_4, Q14005; [1]
  pKd: below the threshold
DLG2_3, Q15700; [1]
  pKd: below the threshold
